“Also recorded” adds a separate entry of the source.
Assays:
plasminogen [1] = molecular target: T1, plasminogen (Homo sapiens, UniProt P00747); test: Reactivity of peptide library with plasminogen, Dot-Blot method; assay type: binding; conditions: peptide immobilized on nitrocellulose film; HRP-labeled anti-plasminogen antibody; DAB staining
From the text: FIG. 11 is a photograph after staining with DAB reagent in a Dot-Blot measurement, for detecting the binding between each of the peptide 1 to peptide 8 and plasminogen. The numbers 1 to 8 in FIG. 11 indicate the locations at which peptide solutions of the peptide 1 to peptide 8 were dropped, respectively, and P indicates the locations at which plasminogen solutions (positive control) were dropped.
(§1) A peptide library of peptides 1 to 8 (SEQ ID NOs: 10 to 17), which are divided peptides obtained from a 35-residue sequence of 254th to 288th residues (FIG. 2) of the amino acid sequence of the parasite enolase, was used. Each of the peptides of the peptide library was allowed to react with plasminogen using a Dot-Blot method and an ELISA method, thereby carrying out a search for an amino acid sequence recognized by plasminogen.
The reactivity of the peptides was measured by a Dot-Blot method, using a 10% acetonitrile solution of each of 8 types of peptides, peptide 1 to peptide 8, by the following steps in the following order; (a) immobilization of each peptide on a nitrocellulose film (pore size: 0.45 μm); (b) reaction with plasminogen in a plasminogen solution; (c) reaction with an HRP-labeled anti-plasminogen antibody; and (d) DAB staining.

plasminogen [2] = molecular target: T1, plasminogen; test: Reactivity of peptide library with plasminogen, ELISA method; assay type: binding; conditions: peptide immobilized in wells; plasminogen 1 μg/well; HRP modified anti-plasminogen antibody, TMB staining
Protocol: FIG. 12 is a photograph of a plate after staining with TMB reagent in an ELISA measurement, for detecting the binding between each of the peptide 1 to peptide 8 and plasminogen. Each of the peptide 1 to peptide 8 was immobilized in each of the wells of the plate, and then allowed to react with plasminogen. Detection of binding was carried out by staining with an HRP modified-anti-plasminogen antibody and TMB reagent.
FIG. 13 is a graph of absorbance data (at 450 nm) taken after staining with TMB in an ELISA measurement, for detecting the binding between each of the peptide 1 to peptide 8 and plasminogen (plasminogen concentration: 1 μg/well).
as §1
Next, in order to digitize and quantify the reaction of the peptide library with plasminogen, the detection of binding by an ELISA method was carried out.

P. falciparum = test: Vaccine trial in owl monkeys; assay type: in vivo; conditions: 13 owl monkeys, vaccinated
Protocol: Subsequently, a vaccine trial was carried out using as antigens enolase derived from P. falciparum and an AD22 partial sequence peptide, and using 13 owl monkeys. The changes in the percentage of parasitism of P. falciparum in red blood cells in the peripheral blood of the owl monkeys were plotted.
The antigen which causes owl monkeys to acquire immunity is a chemically synthesized peptide antigen having a tandem structure in which four 22-residue peptides (AD22) are tandemly arranged, and has a structure represented by the following Structural Formula (A). Although Xaa in the Structural Formula (A) of the antigen is arbitrary, a Cys(Acm) residue, which is a Cys residue whose side chain is protected by an acetamidomethyl group, is used at this time.

T1 sequence (P00747 20-810 limits assumed): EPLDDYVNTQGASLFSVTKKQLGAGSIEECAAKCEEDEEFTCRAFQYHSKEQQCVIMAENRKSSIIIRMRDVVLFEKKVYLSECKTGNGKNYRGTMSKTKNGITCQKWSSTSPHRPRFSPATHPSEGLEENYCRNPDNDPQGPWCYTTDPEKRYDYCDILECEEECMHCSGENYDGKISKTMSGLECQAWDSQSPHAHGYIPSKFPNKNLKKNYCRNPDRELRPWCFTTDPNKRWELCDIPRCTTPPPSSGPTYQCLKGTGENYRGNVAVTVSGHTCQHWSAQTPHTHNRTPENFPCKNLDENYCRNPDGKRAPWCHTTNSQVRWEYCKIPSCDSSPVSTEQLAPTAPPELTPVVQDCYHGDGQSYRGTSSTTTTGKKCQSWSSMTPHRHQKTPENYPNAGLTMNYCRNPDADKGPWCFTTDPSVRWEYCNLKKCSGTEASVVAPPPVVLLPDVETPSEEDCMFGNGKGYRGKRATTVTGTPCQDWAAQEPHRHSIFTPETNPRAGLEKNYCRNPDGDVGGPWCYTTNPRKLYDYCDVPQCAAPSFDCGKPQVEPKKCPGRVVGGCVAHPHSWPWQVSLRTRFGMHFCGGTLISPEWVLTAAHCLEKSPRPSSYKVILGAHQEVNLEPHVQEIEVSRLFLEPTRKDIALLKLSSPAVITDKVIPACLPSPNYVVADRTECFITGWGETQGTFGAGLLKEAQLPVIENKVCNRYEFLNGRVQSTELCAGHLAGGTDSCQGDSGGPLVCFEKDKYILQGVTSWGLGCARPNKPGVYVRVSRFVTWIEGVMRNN

Row | Molecule | binding of peptide chains with plasminogen (plasminogen [1]) | reactivity with plasminogen (absorbance at 450 nm) (plasminogen [2]) | percentage of parasitism of P. falciparum in red blood cells in the peripheral blood (P. falciparum)
1 | 2: divided peptide from the 254th to 288th residue sequence of parasite enolase; SEQ ID NO: 11 (FYNSENKTYDK; listed as Plasmodium falciparum) [compound 2] | binding of peptide chains with plasminogen was observed | – | –
2 | 5: 10-residue divided peptide from the 254th to 288th residue sequence of parasite enolase; SEQ ID NO: 14 (PNNDKSLVKTK; listed as Plasmodium falciparum) [compound 5] | – | relatively high reactivity with plasminogen | –
3 | peptide 3: 10-residue divided peptide of parasite enolase, NKT sequence then YDLDFKT sequence; SEQ ID NO: 12 (NKTYDLDFKTK; listed as Plasmodium falciparum) | binding of peptide chains with plasminogen was observed | relatively high reactivity with plasminogen; also recorded: highest reactivity with plasminogen, among the 10-residue peptides | –
4 | peptide 7: 25-residue peptide sequence from the 254th to 288th residues of parasite enolase; SEQ ID NO: 16 (VAASEFYNSENKTYDLDFKTPNNDK; listed as Plasmodium falciparum) | binding of peptide chains with plasminogen was observed | high reactivity with plasminogen | –
5 | peptide 8: 35-residue peptide sequence, 254th to 288th residues of parasite enolase; SEQ ID NO: 17 (VAASEFYNSENKTYDLDFKTPNNDKSLVKTGAQLVK; listed as Plasmodium falciparum) | binding of peptide chains with plasminogen was observed | high reactivity with plasminogen | –
6 | enolase derived from P. falciparum: P. falciparum-derived enolase, a glycolytic enzyme, used as vaccine antigen (protein, UniProt Q8IJN7 1-446, looked up) Enolase: MAHVITRINAREILDSRGNPTVEVDLETNLGIFRAAVPSGASTGIYEALELRDNDKSRYLGKGVQKAIKNINEIIAPKLIGMNCTEQKKIDNLMVEELDGSKNEWGWSKSKLGANAILAISMAVCRAGAAANKVSLYKYLAQLAGKKSDQMVLPVPCLNVINGGSHAGNKLSFQEFMIVPVGAPSFKEALRYGAEVYHTLKSEIKKKYGIDATNVGDEGGFAPNILNANEALDLLVTAIKSAGYEGKVKIAMDVAASEFYNSENKTYDLDFKTPNNDKSLVKTGAQLVDLYIDLVKKYPIVSIEDPFDQDDWENYAKLTAAIGKDVQIVGDDLLVTNPTRITKALEKNACNALLLKVNQIGSITEAIEACLLSQKNNWGVMVSHRSGETEDVFIADLVVALRTGQIKTGAPCRSERNAKYNQLLRIEESLGNNAVFAGEKFRLQLN | – | – | a rapid increase in the percentage of parasitism was in inhibited

Source: patent US10583184B2, “Artificial antigen produced using partial sequence of enolase protein originated from plasmodium falciparum, and method for producing same” (priority 2014, dated 2020)
